Measurements reported in patent publication US20080138349A1.

What was measured:
[1] = target: FcγRIIIA 158F (CD16A F158), soluble monomer (human) (UniProt P08637); assay: Biacore SPR
[2] = target: FcγRIIB (CD32B), soluble dimeric Fc fusion (human) (UniProt P31994); assay: Biacore SPR
[3] = target: FcγRIIIA 158V (CD16A V158), soluble monomer (human) (UniProt P08637); assay: Biacore SPR
[4] = target: FcγRIIIA 158F (CD16A F158), soluble monomer (human) (UniProt P08637); assay: Biacore SPR; value on CD16A over value on CD32B
[5] = target: FcγRIIIA 158V (CD16A V158), soluble monomer (human) (UniProt P08637); assay: Biacore SPR; value on CD16A over value on CD32B
FcγRIIIA = FcγRIIIA (UniProt P08637); assay: ELISA
FcγRIIIA, sequence (P08637 17-208 limits assumed): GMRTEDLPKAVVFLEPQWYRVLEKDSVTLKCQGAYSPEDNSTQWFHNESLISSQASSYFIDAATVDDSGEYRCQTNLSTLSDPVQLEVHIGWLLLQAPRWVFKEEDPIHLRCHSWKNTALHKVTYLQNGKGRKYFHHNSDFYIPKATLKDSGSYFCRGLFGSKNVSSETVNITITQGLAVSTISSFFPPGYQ

FcγRIIIA 158F (CD16A F158), soluble monomer (human), sequence (P08637 17-208): as the sequence (P08637 17-208 limits assumed) above
FcγRIIB (CD32B), soluble dimeric Fc fusion (human), sequence (P31994 43-217): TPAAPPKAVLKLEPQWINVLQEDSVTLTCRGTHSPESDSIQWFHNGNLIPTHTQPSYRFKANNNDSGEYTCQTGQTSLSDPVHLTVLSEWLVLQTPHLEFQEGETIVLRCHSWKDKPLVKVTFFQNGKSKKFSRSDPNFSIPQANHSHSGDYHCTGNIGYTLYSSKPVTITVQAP
FcγRIIIA 158V (CD16A V158), soluble monomer (human), sequence (P08637 17-208 F176V): as the sequence (P08637 17-208 limits assumed) above, with F160V counted along it

In the case of “Immunoglobulin with variant Fc region D270E (antibody)”, the Koff WT/Koff mutant [1] is reported as 1.48, the Koff WT/Koff mutant [2] is reported as 0.39 and the Koff WT/Koff mutant [3] is reported as 1.25. It also gave a Ratio of Affinities CD16A F158/CD32B [4] of 3.79 and a Ratio of Affinities CD16A V158/CD32B [5] of 3.21.

“Immunoglobulin with variant Fc region G316D R416G D270E (antibody)” was tested, and the Koff WT/Koff mutant [1] was 2.49, the Koff WT/Koff mutant [2] was 0.78 and the Koff WT/Koff mutant [3] was 2.18. It also gave a Ratio of Affinities CD16A F158/CD32B [4] of 3.19 and a Ratio of Affinities CD16A V158/CD32B [5] of 2.79.

Work on “Immunoglobulin with variant Fc region G316D R416G D270E F243L (antibody)” yielded a Koff WT/Koff mutant [1] of 1.34, a Koff WT/Koff mutant [2] of 0.2 and a Koff WT/Koff mutant [3] of 1.5. The Ratio of Affinities CD16A F158/CD32B [4] was 6.7 and the Ratio of Affinities CD16A V158/CD32B [5] was 7.5.

In the case of “Immunoglobulin with variant Fc region G316D R416G D270E P396L (antibody)”, the Koff WT/Koff mutant [1] is reported as 0.94, the Koff WT/Koff mutant [2] is reported as 1.07 and the Koff WT/Koff mutant [3] is reported as 1.22. The Ratio of Affinities CD16A F158/CD32B [4] was 0.88 and the Ratio of Affinities CD16A V158/CD32B [5] was 1.14.

With “Immunoglobulin with variant Fc region K392T P396L (antibody)” the Koff WT/Koff mutant [1] was 1.81, the Koff WT/Koff mutant [2] was 2.35 and the Koff WT/Koff mutant [3] was 1.49. For the same substance, the Ratio of Affinities CD16A F158/CD32B [4] was 0.77 and the Ratio of Affinities CD16A V158/CD32B [5] was 0.63.

“Immunoglobulin with variant Fc region K392T P396L D270E (antibody)” gave a Koff WT/Koff mutant [1] of 2.28, a Koff WT/Koff mutant [2] of 0.79 and a Koff WT/Koff mutant [3] of 1.81. The Ratio of Affinities CD16A F158/CD32B [4] was 2.89 and the Ratio of Affinities CD16A V158/CD32B [5] was 2.29.

“Immunoglobulin with variant Fc region K392T P396L D270E F243L (antibody)” gave a Koff WT/Koff mutant [1] of 2.44, a Koff WT/Koff mutant [2] of 0.44 and a Koff WT/Koff mutant [3] of 3.16. For the same substance, the Ratio of Affinities CD16A F158/CD32B [4] was 5.55 and the Ratio of Affinities CD16A V158/CD32B [5] was 7.18.

“Immunoglobulin with variant Fc region P247L N421K (antibody)” was tested, and the Koff WT/Koff mutant [1] was 1.73 and the Koff WT/Koff mutant [3] was 1.29.

“Immunoglobulin with variant Fc region Q419H P396L D270E (antibody)” gave a Koff WT/Koff mutant [2] of 0.68 and a Koff WT/Koff mutant [3] of 1.64.

“Immunoglobulin with variant Fc region R292G (antibody)” gave a Koff WT/Koff mutant [2] of 0.25, a Koff WT/Koff mutant [3] of 1.54 and a Ratio of Affinities CD16A V158/CD32B [5] of 6.2.

Work on “Immunoglobulin with variant Fc region R292P F243L (antibody)” yielded a Ratio of Affinities CD16A V158/CD32B [5] of 39.4.

“Immunoglobulin with variant Fc region R292P V305I (antibody)” was tested, and the Ratio of Affinities CD16A V158/CD32B [5] was 0.6.

“Immunoglobulin with variant Fc region R292P V305I F243L P396L Y300L (antibody)” gave a Koff WT/Koff mutant [1] of 8.25, a Koff WT/Koff mutant [2] of 1.38 and a Koff WT/Koff mutant [3] of 10.1.

Substance “ch4-4-20 A378V, N390I, V422I (from UniProt P01857 1-330) (antibody)” has an ELISA binding increase vs wt (FcγRIIIA) of 0.5 x.

“ch4-4-20 D280E, S354F, A431D, L441I (from UniProt P01857 1-330) (antibody)” showed an ELISA binding increase vs wt (FcγRIIIA) of 3 x.

With “ch4-4-20 D312E, K327N, I378S (from UniProt P01857 1-330) (antibody)” the ELISA binding increase vs wt (FcγRIIIA) was 0.5 x.

In the case of “ch4-4-20 D399E, M428L (from UniProt P01857 1-330) (antibody)”, the ELISA binding decrease vs wt (FcγRIIIA) is reported as 0.5 x.

“ch4-4-20 D401V (from UniProt P01857 1-330) (antibody)” showed an ELISA binding increase vs wt (FcγRIIIA) of 0.5 x.

Work on “ch4-4-20 E216D, E345K, S375I (from UniProt P01857 1-330) (antibody)” yielded an ELISA binding increase vs wt (FcγRIIIA) of 0.5 x.

Work on “ch4-4-20 F243L, R255L, E318K (from UniProt P01857 1-330) (antibody)” yielded an ELISA binding increase vs wt (FcγRIIIA) of 1 x.

For “ch4-4-20 F275I, K334N, V348M (from UniProt P01857 1-330) (antibody)”, the ELISA binding increase vs wt (FcγRIIIA) was 0.5 x.

“ch4-4-20 F275Y (from UniProt P01857 1-330) (antibody)” was tested, and the ELISA binding increase vs wt (FcγRIIIA) was 3 x.

“ch4-4-20 G385E, P247H (from UniProt P01857 1-330) (antibody)” gave an ELISA binding increase vs wt (FcγRIIIA) of 1 x.

For “ch4-4-20 H224L (from UniProt P01857 1-330) (antibody)”, the ELISA binding increase vs wt (FcγRIIIA) was 0.5 x.

Substance “ch4-4-20 H310Y, T289A, G337E (from UniProt P01857 1-330) (antibody)” has an ELISA binding increase vs wt (FcγRIIIA) of 0.5 x.

For “ch4-4-20 I377N (from UniProt P01857 1-330) (antibody)”, the ELISA binding decrease vs wt (FcγRIIIA) was 0.5 x.

In the case of “ch4-4-20 K222N (from UniProt P01857 1-330) (antibody)”, the ELISA binding increase vs wt (FcγRIIIA) is reported as 1 x.

“ch4-4-20 K222N, T335N, K370E, A378V, T394M (from UniProt P01857 1-330) (antibody)” showed an ELISA binding increase vs wt (FcγRIIIA) of 1 x.

With “ch4-4-20 K246R, S298N, I377F (from UniProt P01857 1-330) (antibody)” the ELISA binding increase vs wt (FcγRIIIA) was 1 x.

With “ch4-4-20 K246T, P396H (from UniProt P01857 1-330) (antibody)” the ELISA binding increase vs wt (FcγRIIIA) was 1 x.

For “ch4-4-20 K246T, Y319F (from UniProt P01857 1-330) (antibody)”, the ELISA binding increase vs wt (FcγRIIIA) was 1 x.

“ch4-4-20 K288N, K326N (from UniProt P01857 1-330) (antibody)” was tested, and the ELISA binding increase vs wt (FcγRIIIA) was 1 x.

Work on “ch4-4-20 K320E, K326E (from UniProt P01857 1-330) (antibody)” yielded an ELISA binding increase vs wt (FcγRIIIA) of 1 x.

With “ch4-4-20 K326E, G385E (from UniProt P01857 1-330) (antibody)” the ELISA binding increase vs wt (FcγRIIIA) was 0.5 x.

“ch4-4-20 K326I, P396L (from UniProt P01857 1-330) (antibody)” gave an ELISA binding increase vs wt (FcγRIIIA) of 2.9 x.

In the case of “ch4-4-20 K334E, T359N, T366S, Q386R (from UniProt P01857 1-330) (antibody)”, the ELISA binding increase vs wt (FcγRIIIA) is reported as 1 x.

With “ch4-4-20 K334I (from UniProt P01857 1-330) (antibody)” the ELISA binding increase vs wt (FcγRIIIA) was 1 x.

“ch4-4-20 K334N (from UniProt P01857 1-330) (antibody)” was tested, and the ELISA binding increase vs wt (FcγRIIIA) was 0.5 x.

For “ch4-4-20 K370N, S440N (from UniProt P01857 1-330) (antibody)”, the ELISA binding increase vs wt (FcγRIIIA) was 1 x.

In the case of “ch4-4-20 N315I, V379M, T394M (from UniProt P01857 1-330) (antibody)”, the ELISA IIIA binding vs wt (FcγRIIIA) is reported as 1 X and the ELISA binding increase vs wt (FcγRIIIA) is reported as 1 x.

Work on “ch4-4-20 P227S, K290E (from UniProt P01857 1-330) (antibody)” yielded an ELISA binding increase vs wt (FcγRIIIA) of 1 x.

Substance “ch4-4-20 P247L (from UniProt P01857 1-330) (antibody)” has an ELISA binding increase vs wt (FcγRIIIA) of 0.5 x.

Work on “ch4-4-20 P247L, A431V, S442F (from UniProt P01857 1-330) (antibody)” yielded an ELISA binding vs wt (FcγRIIIA) of 1 x.

“ch4-4-20 P247L, I253N, K334N (from UniProt P01857 1-330) (antibody)” gave an ELISA binding increase vs wt (FcγRIIIA) of 3 x.

For “ch4-4-20 P247L, I377F (from UniProt P01857 1-330) (antibody)”, the ELISA binding increase vs wt (FcγRIIIA) was 1 x.

In the case of “ch4-4-20 P291S, K288E, H268L, A141V (from UniProt P01857 1-330) (antibody)”, the ELISA binding decrease vs wt (FcγRIIIA) is reported as 0.5 x.

“ch4-4-20 P291S, P353Q (from UniProt P01857 1-330) (antibody)” gave an ELISA binding decrease vs wt (FcγRIIIA) of 0.5 x.

In the case of “ch4-4-20 P343S, P353L, S375I, S383N (from UniProt P01857 1-330) (antibody)”, the ELISA binding increase vs wt (FcγRIIIA) is reported as 0.5 x.

In the case of “ch4-4-20 P396H (from UniProt P01857 1-330) (antibody)”, the ELISA binding increase vs wt (FcγRIIIA) is reported as 1 x.

“ch4-4-20 Q347H, A339V (from UniProt P01857 1-330) (antibody)” showed an ELISA binding increase vs wt (FcγRIIIA) of 0.5 x.

“ch4-4-20 R301C, M252L, S192T (from UniProt P01857 1-330) (antibody)” showed an ELISA binding decrease vs wt (FcγRIIIA) of 0.5 x.

For “ch4-4-20 R301H, K340E, D399E (from UniProt P01857 1-330) (antibody)”, the ELISA binding decrease vs wt (FcγRIIIA) was 0.5 x.

Substance “ch4-4-20 S219Y (from UniProt P01857 1-330) (antibody)” has an ELISA binding increase vs wt (FcγRIIIA) of 1 x.

“ch4-4-20 S298N, S407R (from UniProt P01857 1-330) (antibody)” gave an ELISA binding increase vs wt (FcγRIIIA) of 0.5 x.

For “ch4-4-20 S383N, N384K, T256N, V262L, K218E, R214I, K205E, F149Y, K133M (from UniProt P01857 1-330) (antibody)”, the ELISA binding increase vs wt (FcγRIIIA) was 0.5 x.

“ch4-4-20 S400P (from UniProt P01857 1-330) (antibody)” showed an ELISA binding increase vs wt (FcγRIIIA) of 1 x.

“ch4-4-20 S407I (from UniProt P01857 1-330) (antibody)” was tested, and the ELISA binding increase vs wt (FcγRIIIA) was 0.5 x.

“ch4-4-20 S408I, V215I, V125L (from UniProt P01857 1-330) (antibody)” gave an ELISA binding increase vs wt (FcγRIIIA) of 0.5 x.

“ch4-4-20 S415I, L251F (from UniProt P01857 1-330) (antibody)” showed an ELISA binding increase vs wt (FcγRIIIA) of 0.5 x.

“ch4-4-20 T335N, K370E, A378V, T394M, S424L (from UniProt P01857 1-330) (antibody)” gave an ELISA binding increase vs wt (FcγRIIIA) of 0.5 x.

In the case of “ch4-4-20 T394M, V397M (from UniProt P01857 1-330) (antibody)”, the ELISA binding increase vs wt (FcγRIIIA) is reported as 0.5 x.

Substance “ch4-4-20 V279L, P395S (from UniProt P01857 1-330) (antibody)” has an ELISA binding increase vs wt (FcγRIIIA) of 1 x.

In the case of “ch4-4-20 V282E, V369I, L406F (from UniProt P01857 1-330) (antibody)”, the ELISA binding increase vs wt (FcγRIIIA) is reported as 0.5 x.

Substance “ch4-4-20 V282M (from UniProt P01857 1-330) (antibody)” has an ELISA binding increase vs wt (FcγRIIIA) of 1 x.

In the case of “ch4-4-20 V284A, F372L (from UniProt P01857 1-330) (antibody)”, the ELISA binding vs wt (FcγRIIIA) is reported as 1 x.
